Results published in patent publication US20200317768A1 (published 2020).

T1: cynomolgus monkey FcγRIIa2 extracellular domain, His-tagged (cynomolgus monkey)
T1 construct: also called cyno FcgRIIa2; cynoFcγRIIa2; not shown: His-tag added to the C-terminus
T1 chain: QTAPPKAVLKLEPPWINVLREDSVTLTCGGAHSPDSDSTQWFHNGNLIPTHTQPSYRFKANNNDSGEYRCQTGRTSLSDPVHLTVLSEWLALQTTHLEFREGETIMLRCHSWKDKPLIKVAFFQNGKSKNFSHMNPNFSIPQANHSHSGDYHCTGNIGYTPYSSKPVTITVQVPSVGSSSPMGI

T2: human FcγRIIb extracellular domain, His-tagged (human, UniProt P31994 43-217)
T2 construct: also called human FcgRIIb; not shown: His-tag added to the C-terminus
T2 sequence: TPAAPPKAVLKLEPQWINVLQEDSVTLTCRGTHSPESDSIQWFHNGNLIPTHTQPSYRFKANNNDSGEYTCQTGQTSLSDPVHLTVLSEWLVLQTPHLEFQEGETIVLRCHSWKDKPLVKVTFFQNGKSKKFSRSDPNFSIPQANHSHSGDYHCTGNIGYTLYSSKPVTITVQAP

T3: cynomolgus monkey FcγRIIa1 extracellular domain, C-terminal His-tag (cynomolgus monkey)
T3 construct: also called cyno FcγRIIa1; cynoFcgRIIa1; not shown: His-tag added to C-terminus
T3 chain: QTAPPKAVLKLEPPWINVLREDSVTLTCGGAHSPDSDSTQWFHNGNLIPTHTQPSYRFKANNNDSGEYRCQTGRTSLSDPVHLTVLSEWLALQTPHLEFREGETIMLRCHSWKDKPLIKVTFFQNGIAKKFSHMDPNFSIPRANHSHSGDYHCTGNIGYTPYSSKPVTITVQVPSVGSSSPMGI

T4: cynomolgus monkey FcγRIIa2 extracellular domain, C-terminal His-tag (cynomolgus monkey)
T4 construct: also called cyno FcγRIIa2; cynoFcgRIIa2; not shown: His-tag added to C-terminus
T4 chain: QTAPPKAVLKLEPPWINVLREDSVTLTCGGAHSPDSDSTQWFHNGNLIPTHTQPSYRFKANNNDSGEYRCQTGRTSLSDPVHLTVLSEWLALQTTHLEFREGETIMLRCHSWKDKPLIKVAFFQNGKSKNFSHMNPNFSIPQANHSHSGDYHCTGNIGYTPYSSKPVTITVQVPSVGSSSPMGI

T5: human FcγRIIaH extracellular domain, C-terminal His-tag (human, UniProt P12318 34-217)
T5 construct: also called human FcγRIIa (type H); FcgRIIaH; not shown: His-tag added to C-terminus
T5 sequence: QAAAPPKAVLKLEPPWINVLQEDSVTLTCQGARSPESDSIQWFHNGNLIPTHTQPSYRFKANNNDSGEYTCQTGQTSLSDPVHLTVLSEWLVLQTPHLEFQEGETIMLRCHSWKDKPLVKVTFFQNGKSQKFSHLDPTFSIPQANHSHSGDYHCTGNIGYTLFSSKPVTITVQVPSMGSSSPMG

T6: human FcγRIIaR extracellular domain, C-terminal His-tag (human, UniProt P12318 34-217)
T6 construct: also called human FcγRIIa (type R); FcgRIIaR; not shown: His-tag added to C-terminus
T6 chain: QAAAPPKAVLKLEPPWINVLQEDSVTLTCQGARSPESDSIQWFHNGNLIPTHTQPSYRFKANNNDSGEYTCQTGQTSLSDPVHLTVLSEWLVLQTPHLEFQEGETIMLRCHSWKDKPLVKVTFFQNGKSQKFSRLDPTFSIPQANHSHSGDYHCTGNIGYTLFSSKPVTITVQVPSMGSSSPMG

T7: human FcγRIIb extracellular domain, C-terminal His-tag (human, UniProt P31994 43-217)
T7 construct: also called humanFcgRIIb; not shown: His-tag added to C-terminus
T7 sequence: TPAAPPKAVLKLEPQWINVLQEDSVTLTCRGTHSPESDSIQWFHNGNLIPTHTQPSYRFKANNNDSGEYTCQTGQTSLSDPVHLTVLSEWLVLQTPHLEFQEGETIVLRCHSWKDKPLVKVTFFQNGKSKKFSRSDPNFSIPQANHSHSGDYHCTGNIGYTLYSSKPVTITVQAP


Legend:
[1] = target: T1, cynomolgus monkey FcγRIIa2 …; test: SPR; KD of SG1 divided by KD of the variant
Protocol: (§1) Regarding such interactions, KD values were calculated using the following 1:1 binding model described in BIACORE® T100 Software Handbook BR1006-48 Edition AE.
(§2) The behavior of interacting molecules according to the 1:1 binding model on BIACORE® can be described by Equation 1: Req=C·R max/(KD+C)+RI, wherein, Req is a plot of steady-state binding levels to analyte concentration. C is concentration, RI is bulk refractive index contribution in the sample, and Rmax is analyte binding capacity of the surface. When this equation is rearranged, KD can be expressed as Equation 2: KD=C·Rmax/(Req−RI)−C. KD can be calculated by substituting the values of Rmax, RI, and C into Equation 1 or Equation 2. From the current measurement conditions, RI=0, C=2 μmol/L can be used.
(§3) The resultant variants were expressed using M103202L889-SK1 as light chain and their affinity to human and cynoFcγRs were evaluated (Table 21).

[2] = target: T2, human FcγRIIb extracellular domain, …; test: SPR; KD of SG1 divided by KD of the variant
Protocol: as §1, §2, §3

[3] = target: T3, cynomolgus monkey FcγRIIa1 …; test: SPR (BIACORE); KD of SG1 / KD of variant
[4] = target: T4, cynomolgus monkey FcγRIIa2 …; test: SPR (BIACORE); KD of SG1 / KD of variant
[5] = target: T8, cynomolgus monkey FcγRIIIaS extracellular domain, C-terminal His-tag (cynomolgus monkey, UniProt A3RFZ7 21-206 (rhesus entry)); test: SPR (BIACORE); KD of SG1 / KD of variant
T8 construct: also called cyno FcγRIIIaS; cynoFcγRIIIaS; not shown: His-tag added to C-terminus

[6] = target: T5, human FcγRIIaH extracellular domain, …; test: SPR (BIACORE); KD of SG1 / KD of variant
[7] = target: T6, human FcγRIIaR extracellular domain, …; test: SPR (BIACORE); KD of SG1 / KD of variant
[8] = target: T7, human FcγRIIb extracellular domain, …; test: SPR (BIACORE); KD of SG1 / KD of variant
[9] = target: T9, human FcγRIIIaV extracellular domain, C-terminal His-tag (human, UniProt P08637 17-208); test: SPR (BIACORE); KD of SG1 / KD of variant
T9 construct: also called FcgRIIIaV; not shown: His-tag added to C-terminus
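Note: relative to parent M103205H795-SG1 carrying the SG1 human heavy chain constant region.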

T9 sequence (P08637 17-208 F176V): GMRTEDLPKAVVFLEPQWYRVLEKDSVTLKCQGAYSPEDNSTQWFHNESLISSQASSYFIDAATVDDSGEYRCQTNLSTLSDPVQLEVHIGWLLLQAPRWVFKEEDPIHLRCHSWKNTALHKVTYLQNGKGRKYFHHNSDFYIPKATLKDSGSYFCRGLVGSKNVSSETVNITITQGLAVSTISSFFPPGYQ
T8 sequence (A3RFZ7 21-206): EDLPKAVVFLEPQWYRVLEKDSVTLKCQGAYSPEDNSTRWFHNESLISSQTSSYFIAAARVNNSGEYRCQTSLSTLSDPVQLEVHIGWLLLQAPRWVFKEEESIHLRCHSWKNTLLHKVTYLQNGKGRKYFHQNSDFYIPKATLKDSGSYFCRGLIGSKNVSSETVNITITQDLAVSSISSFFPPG

Row | Binder | KD fold (SG1 = 1) [1] | KD fold (SG1 = 1) [2] | KD fold (SG1 = 1) [3] | KD fold (SG1 = 1) [4] | KD fold (SG1 = 1) [5] | KD fold (SG1 = 1) [6] | KD fold (SG1 = 1) [7] | KD fold (SG1 = 1) [8] | KD fold (SG1 = 1) [9]
1 | MS1032LO06-SG1 (M103205H795-SG1/M103202L889-SK1) (antibody, human IgG1, kappa, Anti-latent myostatin antibody; Parent of the Fc variants; copies: 2 + 2) heavy: not shown light: DIVMTQSPATLSLSPGERATLSCTSSQSVYHANWLSWFQQKPGQPPKLLIYWASTLAYGVPSRFSGSGSGTDFTLTISSLQPEDAATYYCAGGYGGGRYAFGQGTKVEIKRTVAAPSVFIFPPSDEQLKSGTASVVCLLNNFYPREAKVQWKVDNALQSGNSQESVTEQDSKDSTYSLSSTLTLSKADYEKHKVYACEVTHQGLSSPVTKSFNRGEC | 1 fold | 1 fold |  |  |  |  |  |  | 
2 | M103205H795-MY201/M103202L889-SK1 (antibody, human IgG1, kappa, Fc variant G236N/H268D/A330K (EU numbering) of SG1; also called MS1032LO06-MY201; copies: 2 + 2) heavy: QVTLKESGPVLVKPTETLTLTCTVSGIDLSHDDISWVRQAPGKGLEWVGIISYAGSTYYASWAKGRLTISKDTSKNQVVLTMTNMDPVDTATYYCARGVPAYSHGGDLWGQGTLVTVSSASTKGPSVFPLAPSSKSTSGGTAALGCLVKDYFPEPVTVSWNSGALTSGVHTFPAVLQSSGLYSLSSVVTVPSSSLGTQTYICNVNHKPSNTKVDKKVEPKSCDKTHTCPPCPAPELLNGPSVFLFPPKPKDTLMISRTPEVTCVVVDVSDEDPEVKFNWYVDGVEVHNAKTKPREEQYNSTYRVVSVLTVLHQDWLNGKEYKCKVSNKALPKPIEKTISKAKGQPREPQVYTLPPSREEMTKNQVSLTCLVKGFYPSDIAVEWESNGQPENNYKTTPPVLDSDGSFFLYSKLTVDKSRWQQGNVFSCSVMHEALHNHYTQKSLSLSP light: DIVMTQSPATLSLSPGERATLSCTSSQSVYHANWLSWFQQKPGQPPKLLIYWASTLAYGVPSRFSGSGSGTDFTLTISSLQPEDAATYYCAGGYGGGRYAFGQGTKVEIKRTVAAPSVFIFPPSDEQLKSGTASVVCLLNNFYPREAKVQWKVDNALQSGNSQESVTEQDSKDSTYSLSSTLTLSKADYEKHKVYACEVTHQGLSSPVTKSFNRGEC | 3.6 fold | 4.2 fold |  |  |  |  |  |  | 
3 | M103205H795-MY344 / M103202L889-SK1 (antibody, human IgG1, kappa, CH with G236N/H268D/Q295L/Q311R/A330K/D413K against SG1 (EU numbering); also called MS1032LO06-MY344) heavy: QVTLKESGPVLVKPTETLTLTCTVSGIDLSHDDISWVRQAPGKGLEWVGIISYAGSTYYASWAKGRLTISKDTSKNQVVLTMTNMDPVDTATYYCARGVPAYSHGGDLWGQGTLVTVSSASTKGPSVFPLAPSSKSTSGGTAALGCLVKDYFPEPVTVSWNSGALTSGVHTFPAVLQSSGLYSLSSVVTVPSSSLGTQTYICNVNHKPSNTKVDKKVEPKSCDKTHTCPPCPAPELLNGPSVFLFPPKPKDTLMISRTPEVTCVVVDVSDEDPEVKFNWYVDGVEVHNAKTKPREELYNSTYRVVSVLTVLHRDWLNGKEYKCKVSNKALPKPIEKTISKAKGQPREPQVYTLPPSREEMTKNQVSLTCLVKGFYPSDIAVEWESNGQPENNYKTTPPVLDSDGSFFLYSKLTVKKSRWQQGNVFSCSVMHEALHNHYTQKSLSLSP light: DIVMTQSPATLSLSPGERATLSCTSSQSVYHANWLSWFQQKPGQPPKLLIYWASTLAYGVPSRFSGSGSGTDFTLTISSLQPEDAATYYCAGGYGGGRYAFGQGTKVEIKRTVAAPSVFIFPPSDEQLKSGTASVVCLLNNFYPREAKVQWKVDNALQSGNSQESVTEQDSKDSTYSLSSTLTLSKADYEKHKVYACEVTHQGLSSPVTKSFNRGEC |  |  | 3.6 fold | 4.6 fold | 0.07 fold | 1 fold | 0.9 fold | 6.4 fold | 0.04 fold
4 | M103205H795-PK2 / M103202L889-SK1 (antibody, human IgG1, kappa, CH with G236N/H268E/A330K/P396M/S400R/D413K against SG1 (EU numbering); also called MS1032LO06-PK2; MS103205H795-PK2) heavy: QVTLKESGPVLVKPTETLTLTCTVSGIDLSHDDISWVRQAPGKGLEWVGIISYAGSTYYASWAKGRLTISKDTSKNQVVLTMTNMDPVDTATYYCARGVPAYSHGGDLWGQGTLVTVSSASTKGPSVFPLAPSSKSTSGGTAALGCLVKDYFPEPVTVSWNSGALTSGVHTFPAVLQSSGLYSLSSVVTVPSSSLGTQTYICNVNHKPSNTKVDKKVEPKSCDKTHTCPPCPAPELLNGPSVFLFPPKPKDTLMISRTPEVTCVVVDVSEEDPEVKFNWYVDGVEVHNAKTKPREEQYNSTYRVVSVLTVLHQDWLNGKEYKCKVSNKALPKPIEKTISKAKGQPREPQVYTLPPSREEMTKNQVSLTCLVKGFYPSDIAVEWESNGQPENNYKTTPMVLDRDGSFFLYSKLTVKKSRWQQGNVFSCSVMHEALHNHYTQKSLSLSP light: DIVMTQSPATLSLSPGERATLSCTSSQSVYHANWLSWFQQKPGQPPKLLIYWASTLAYGVPSRFSGSGSGTDFTLTISSLQPEDAATYYCAGGYGGGRYAFGQGTKVEIKRTVAAPSVFIFPPSDEQLKSGTASVVCLLNNFYPREAKVQWKVDNALQSGNSQESVTEQDSKDSTYSLSSTLTLSKADYEKHKVYACEVTHQGLSSPVTKSFNRGEC |  |  | 2.5 fold | 3.9 fold | 0.09 fold | 1.2 fold | 1 fold | 7.8 fold | 0.06 fold
5 | M103205H795-MY351 / M103202L889-SK1 (antibody, human IgG1, kappa, CH with G236N/H268D/Q311R/A330K/D413K against SG1 (EU numbering); also called MS1032LO06-MY351) heavy: QVTLKESGPVLVKPTETLTLTCTVSGIDLSHDDISWVRQAPGKGLEWVGIISYAGSTYYASWAKGRLTISKDTSKNQVVLTMTNMDPVDTATYYCARGVPAYSHGGDLWGQGTLVTVSSASTKGPSVFPLAPSSKSTSGGTAALGCLVKDYFPEPVTVSWNSGALTSGVHTFPAVLQSSGLYSLSSVVTVPSSSLGTQTYICNVNHKPSNTKVDKKVEPKSCDKTHTCPPCPAPELLNGPSVFLFPPKPKDTLMISRTPEVTCVVVDVSDEDPEVKFNWYVDGVEVHNAKTKPREEQYNSTYRVVSVLTVLHRDWLNGKEYKCKVSNKALPKPIEKTISKAKGQPREPQVYTLPPSREEMTKNQVSLTCLVKGFYPSDIAVEWESNGQPENNYKTTPPVLDSDGSFFLYSKLTVKKSRWQQGNVFSCSVMHEALHNHYTQKSLSLSP light: DIVMTQSPATLSLSPGERATLSCTSSQSVYHANWLSWFQQKPGQPPKLLIYWASTLAYGVPSRFSGSGSGTDFTLTISSLQPEDAATYYCAGGYGGGRYAFGQGTKVEIKRTVAAPSVFIFPPSDEQLKSGTASVVCLLNNFYPREAKVQWKVDNALQSGNSQESVTEQDSKDSTYSLSSTLTLSKADYEKHKVYACEVTHQGLSSPVTKSFNRGEC |  |  | 3.5 fold | 6.7 fold | 0.07 fold | 0.7 fold | 0.7 fold | 3.8 fold | 0.06 fold
